Test results reported in patent publication US20140179604A1 (U S A REPRESENTED BY THE DEPARTMENT OF VETERANS AFFAIRS, published 2014).
Non-standard residues stand in square brackets, D forms with d. No end group written: not given here. *: point of attachment. Desaminotyrosyl = O=C(CCc1ccc(O)cc1)*; NMeY = CN[C@@H](Cc1ccc(O)cc1)C(=O)O; Nle = CCCC[C@H](N)C(=O)O; Orn = NCCC[C@H](N)C(=O)O; Abu = CC[C@H](N)C(=O)O

T1: GHRH receptor (membrane receptors of human anterior pituitary cells) (human) (UniProt Q02643)
T1 sequence (looked up): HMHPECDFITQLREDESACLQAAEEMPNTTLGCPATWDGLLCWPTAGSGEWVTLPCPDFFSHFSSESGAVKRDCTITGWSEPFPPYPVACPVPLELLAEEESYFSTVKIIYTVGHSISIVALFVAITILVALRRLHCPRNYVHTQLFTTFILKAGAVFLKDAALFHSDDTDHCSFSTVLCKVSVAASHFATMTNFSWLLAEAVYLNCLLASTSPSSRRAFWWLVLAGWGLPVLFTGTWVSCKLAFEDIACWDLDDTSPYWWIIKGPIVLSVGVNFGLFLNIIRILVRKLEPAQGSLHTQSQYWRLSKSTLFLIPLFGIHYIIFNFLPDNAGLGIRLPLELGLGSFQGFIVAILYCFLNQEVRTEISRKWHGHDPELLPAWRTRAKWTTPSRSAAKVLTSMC

B1: P-27407 [Dat^1, Gln^8, Orn^12, Abu^15, Orn^21, Nle^27, Asp^28]hGHRH(1-29)NH-CH3 (peptide, from a related filing)
peptide: [Desaminotyrosyl]ADAIFTQSYR[Orn]VL[Abu]QLSAR[Orn]LLQDI[Nle]DR-NHMe
SMILES: CCCC[C@H](NC(=O)[C@@H](NC(=O)[C@H](CC(=O)O)NC(=O)[C@H](CCC(N)=O)NC(=O)[C@H](CC(C)C)NC(=O)[C@H](CC(C)C)NC(=O)[C@H](CCCN)NC(=O)[C@H](CCCNC(=N)N)NC(=O)[C@H](C)NC(=O)[C@H](CO)NC(=O)[C@H](CC(C)C)NC(=O)[C@H](CCC(N)=O)NC(=O)[C@H](CC)NC(=O)[C@H](CC(C)C)NC(=O)[C@@H](NC(=O)[C@H](CCCN)NC(=O)[C@H](CCCNC(=N)N)NC(=O)[C@H](Cc1ccc(O)cc1)NC(=O)[C@H](CO)NC(=O)[C@H](CCC(N)=O)NC(=O)[C@@H](NC(=O)[C@H](Cc1ccccc1)NC(=O)[C@@H](NC(=O)[C@H](C)NC(=O)[C@H](CC(=O)O)NC(=O)[C@H](C)NC(=O)CCc1ccc(O)cc1)[C@@H](C)CC)[C@@H](C)O)C(C)C)[C@@H](C)CC)C(=O)N[C@@H](CC(=O)O)C(=O)N[C@@H](CCCNC(=N)N)C(=O)NC
B2: P-27413 [Dat^1, Gln^8, His^11, Orn^12, Abu^15, His^20, Orn^21, Nle^27, Asp^28]hGHRH(1-29)NH-CH3 (peptide, from a related filing)
peptide: [Desaminotyrosyl]ADAIFTQSYH[Orn]VL[Abu]QLSAH[Orn]LLQDI[Nle]DR-NHMe
SMILES: CCCC[C@H](NC(=O)[C@@H](NC(=O)[C@H](CC(=O)O)NC(=O)[C@H](CCC(N)=O)NC(=O)[C@H](CC(C)C)NC(=O)[C@H](CC(C)C)NC(=O)[C@H](CCCN)NC(=O)[C@H](Cc1c[nH]cn1)NC(=O)[C@H](C)NC(=O)[C@H](CO)NC(=O)[C@H](CC(C)C)NC(=O)[C@H](CCC(N)=O)NC(=O)[C@H](CC)NC(=O)[C@H](CC(C)C)NC(=O)[C@@H](NC(=O)[C@H](CCCN)NC(=O)[C@H](Cc1c[nH]cn1)NC(=O)[C@H](Cc1ccc(O)cc1)NC(=O)[C@H](CO)NC(=O)[C@H](CCC(N)=O)NC(=O)[C@@H](NC(=O)[C@H](Cc1ccccc1)NC(=O)[C@@H](NC(=O)[C@H](C)NC(=O)[C@H](CC(=O)O)NC(=O)[C@H](C)NC(=O)CCc1ccc(O)cc1)[C@@H](C)CC)[C@@H](C)O)C(C)C)[C@@H](C)CC)C(=O)N[C@@H](CC(=O)O)C(=O)N[C@@H](CCCNC(=N)N)C(=O)NC

How the values were obtained:
[1] = target: T1, GHRH receptor (membrane receptors of human anterior pituitary cells) (human); experiment: competition with 125I-[His1,Nle27]hGHRH(1-32)NH2, human pituitary membranes
[2] = target: T1, GHRH receptor (membrane receptors of human anterior pituitary cells) (human); experiment: competition with 125I-JV-1-42, human pituitary membranes

IC50 [1] [nM] | Relative affinity (Binding potency) compared to JI-38 [1] [JI-38 = 1] | Relative affinity (Binding potency) compared to hGHRH(1-29) (hGHRH(1-29)NH2 = 1) [1] | IC50 [2] [nM] | Relative affinity (Binding potency) vs JI-38 [2] [JI-38 = 1] | Molecule
1.12 | 2.45 | 6.83 | 0.87 | 5 | P-27404 [N-Me-Tyr^1, D-Ala^2, Fpa5^6, Orn^12, Abu^15, Orn^21, Nle^27, Asp^28]hGHRH(1-29)NH-CH3 (peptide)
2.51 | 1.09 | 3.04 | 1.08 | 4.03 | [NMeY]ADAIFTQSYR[Orn]VL[Abu]QLSAR[Orn]LLQDI[Nle]SR-NHMe (peptide, from a related filing) [P-27405 [N-Me-Tyr^1, Gln^8, Orn^12, Abu^15, Orn^21, Nle^27]hGHRH(1-29)NH-CH3]
0.93 | 2.95 | 8.22 | 0.3 | 14.5 | [NMeY]ADAIFTQSYR[Orn]VL[Abu]QLSAR[Orn]LLQDI[Nle]DR-NHMe (peptide, from a related filing) [P-27406 [N-Me-Tyr^1, Gln^8, Orn^12, Abu^15, Orn^21, Nle^27, Asp^28]hGHRH(1-29)NH-CH3]
5.01 | 0.54 | 1.52 | 3 | 1.45 | B1
 |  |  | 2.45 | 1.78 | B2
